Self-cleavage data for 167 variants are collected here from the RNAGym collection of RNA variant scans (doi:10.1093/nar/gkz1192).

The chains are these.
B1: CPEB3 Ribozyme (parent)
chain: UAACAGGGGGCCACAGCAGAAGCGUUCACGUCGCAGCCCCUGUCAGAUUCUGGUGAAUCUGCGAAUUCUGCUGUAUAUCUC

In this data set the parent is B1. Briefly: self-cleavage, relative activity (ratio to wild type); higher = more cleavage; in vitro, sequencing. Put shortly: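 Barcoded CPEB3 ribozyme mutants, produced by rounds of error-prone PCR, self-cleaved while being transcribed with T7 RNA polymerase for 5 hours at 37°C and during a subsequent 15 min DNase I step before EDTA was added. Sequencing of template-switched cDNA on Illumina gave cleaved and total reads, and DNA sequencing assigned barcodes to variants. Each variant's relative activity is its cleaved/total read fraction divided by the unmutated ribozyme's fraction, averaged across three batches. A variant needed a minimum of 5 reads.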
As for A75U A77U, the self-cleavage came to 1.2.

For the variant C50A C71G, the self-cleavage is 0.18.

Turning to U54A U60C, the self-cleavage came to 0.67.

Turning to C59G A75U, the self-cleavage was determined as 0.28.

Take A13C U51C: the self-cleavage was 1.11.

For G30A U69A, the self-cleavage was determined as 0.23.

For the variant A13G A75G, the self-cleavage was 1.03.

Turning to U41C C62U, the self-cleavage turned out to be 0.17.

For A18C U51C, the self-cleavage was found to be 0.36.

As to A20U U60G, the self-cleavage is 0.21.

In the case of U31A U67C, the self-cleavage came out at 0.2.

Consider U25C A57G, for which the self-cleavage came to 0.28.

For G19C G52U, the self-cleavage came to 0.35.

With C71G A75G, the self-cleavage came to 0.62.

U51G U58C: the self-cleavage was 0.37.

For the variant U41A C59U, the self-cleavage came to 0.06.

For the variant U31C G46U, the self-cleavage is 0.23.

U41G A77G: the self-cleavage came out at 0.2.

For C11G C14U, the self-cleavage was found to be 0.93.

A56G U69G: the self-cleavage worked out at 0.54.

On to U1C G36A, for which the self-cleavage worked out at 0.21.

For the variant C4G U41A, the self-cleavage turned out to be 0.5.

Regarding C32A U54A, the self-cleavage is 0.29.

As for A35G A64C, the self-cleavage amounted to 0.98.

For the variant A5G C50U, the self-cleavage was 0.5.

In the case of G16A U41C, the self-cleavage stood at 0.49.

For G52U, the self-cleavage stood at 1.13.

As to G9U A13G, the self-cleavage stood at 0.24.

A5G U69C: the self-cleavage was found to be 0.37.

For the variant U1C C27U, the self-cleavage was found to be 0.38.

With G53A U58A, the self-cleavage worked out at 0.48.

As for G53C A56G, the self-cleavage is 0.53.

In the case of U26C C81A, the self-cleavage is 0.63.

As to C44A A77G, the self-cleavage came out at 0.43.

On to A2G A45C, for which the self-cleavage was 0.5.

Regarding G16A U58A, the self-cleavage is 0.12.

A15G U76A: the self-cleavage was found to be 0.94.

Turning to A15U A21U, the self-cleavage stood at 0.19.

On to G7U A56U, for which the self-cleavage was 0.16.

In the case of A18C U69C, the self-cleavage was 0.35.

As for A15U U67A, the self-cleavage was 0.2.

For C23A A65G, the self-cleavage came out at 0.28.

Regarding A5G A18G, the self-cleavage is 0.5.

A35G C81U: the self-cleavage worked out at 1.29.

In the case of A21U U78C, the self-cleavage came to 0.25.

Consider G7C U51C, for which the self-cleavage is 0.28.

As for U25C C71U, the self-cleavage came out at 0.1.

With A13C U41C, the self-cleavage was determined as 1.08.

Consider C14G U74C, for which the self-cleavage came to 0.89.

For A2C G52A, the self-cleavage was 1.02.

For A20G C62U, the self-cleavage was 0.2.

Consider A20G C62G, for which the self-cleavage was determined as 0.17.

On to G52A U80A, for which the self-cleavage came to 1.15.

Turning to C29A C68A, the self-cleavage is 0.23.

As for C40U A65G, the self-cleavage came out at 0.27.

C62U A75G: the self-cleavage is 0.22.

As to C50G, the self-cleavage was 0.8.

As to U41G U51C, the self-cleavage stood at 0.21.

As for G10A U25C, the self-cleavage is 0.23.

As for G53C C71U, the self-cleavage stood at 0.57.

Consider U41C U76A, for which the self-cleavage was determined as 1.17.

In the case of C40A A57G, the self-cleavage amounted to 0.22.

For C39A U74C, the self-cleavage stood at 0.49.

With G16A U69G, the self-cleavage was 0.2.

Take U74A U76C: the self-cleavage stood at 1.34.

With A20C G30U, the self-cleavage amounted to 0.05.

As to C59A U74C, the self-cleavage is 0.5.

Take G10A G33A: the self-cleavage turned out to be 0.19.

In the case of A57C A77G, the self-cleavage stood at 0.45.

For the variant C17U A47U, the self-cleavage stood at 0.33.

Consider G33U A35U, for which the self-cleavage was determined as 0.15.

As to A2G C81U, the self-cleavage is 0.81.

C39G C50G: the self-cleavage turned out to be 0.1.

Turning to G8C U51A, the self-cleavage is 0.12.

As for A13G A65U, the self-cleavage amounted to 0.31.

For U51C G61A, the self-cleavage was 0.71.

Take C34G C68A: the self-cleavage is 0.1.

As for A2U A28U, the self-cleavage turned out to be 0.82.

In the case of G46U A64G, the self-cleavage turned out to be 0.16.

Turning to G24C A57G, the self-cleavage was 0.11.

For the variant U25C U41G, the self-cleavage came out at 0.27.

For the variant A21U A35U, the self-cleavage was 0.28.

For the variant C59U U67C, the self-cleavage worked out at 0.21.

Turning to A13U A35U, the self-cleavage was 0.75.

With A2G C59G, the self-cleavage was determined as 0.24.

For the variant G16U A57G, the self-cleavage amounted to 0.26.

For the variant A64G A65C, the self-cleavage came out at 0.31.

For U26G U80C, the self-cleavage worked out at 0.51.

Consider G16U C32A, for which the self-cleavage is 0.2.

Take G24A A45G: the self-cleavage was 0.24.

Turning to G10C G16A, the self-cleavage is 0.12.

With A13G U43G, the self-cleavage was found to be 0.27.

U54G U67G: the self-cleavage came out at 0.14.

In the case of A13U U41C, the self-cleavage came to 1.2.

On to A15C U41C, for which the self-cleavage stood at 1.13.

Regarding C11G U69A, the self-cleavage amounted to 0.11.

As for A3C G33C, the self-cleavage is 0.35.

With G10C A18G, the self-cleavage was 0.13.

For the variant U43C G61A, the self-cleavage was determined as 0.22.

A45U U76A: the self-cleavage is 0.52.

In the case of A45U G53C, the self-cleavage worked out at 0.33.

U41C G73A: the self-cleavage amounted to 1.23.

Take U54A A65G: the self-cleavage stood at 0.55.

Regarding U31G U43C, the self-cleavage came out at 0.36.

For G30U G52A, the self-cleavage turned out to be 0.17.

Regarding C14U A15U, the self-cleavage came out at 1.07.

With G7U C62U, the self-cleavage was found to be 0.21.

In the case of C62G A65U, the self-cleavage worked out at 0.27.

For the variant A13C A15G, the self-cleavage worked out at 1.07.

For A18G C59G, the self-cleavage came to 0.25.

In the case of U1A U49A, the self-cleavage turned out to be 0.58.

On to U41A U48A, for which the self-cleavage was found to be 0.22.

Take A5G C62U: the self-cleavage worked out at 0.35.

Turning to U41G U72A, the self-cleavage amounted to 0.14.

On to A15U C81U, for which the self-cleavage came out at 1.14.

As for A57G, the self-cleavage amounted to 0.96.

A5U U48C: the self-cleavage was 0.66.

In the case of U58C U80G, the self-cleavage amounted to 0.67.

As to U25A C38A, the self-cleavage stood at 0.18.

Consider C32U A57U, for which the self-cleavage was 0.13.

As to A18C C50U, the self-cleavage is 0.51.

With U51C U74G, the self-cleavage turned out to be 1.21.

On to A47G C50A, for which the self-cleavage turned out to be 0.59.

Regarding A47G C59G, the self-cleavage came out at 0.35.

A2U G10A: the self-cleavage worked out at 0.26.

As to A45G A57U, the self-cleavage was 0.43.

With A13U C32U, the self-cleavage was found to be 0.25.

As for A3C U78C, the self-cleavage came to 1.12.

Regarding U60A G63C, the self-cleavage came to 0.75.

Regarding U66C A77U, the self-cleavage stood at 0.34.

A28G C37A: the self-cleavage turned out to be 0.21.

As for A28G C37U, the self-cleavage was determined as 0.43.

Turning to C62G U80A, the self-cleavage came to 0.25.

Regarding C11G G30U, the self-cleavage was 0.09.

With U69A G73U, the self-cleavage was found to be 0.93.

Take A57G C59G: the self-cleavage turned out to be 0.21.

On to C44U A45G, for which the self-cleavage was 0.41.

On to U26C A35U, for which the self-cleavage was found to be 0.24.

As for C38U G55A, the self-cleavage is 0.4.

Take A5G U41C: the self-cleavage was 0.5.

Regarding U58C A64U, the self-cleavage is 0.33.

In the case of A21G, the self-cleavage amounted to 0.64.

With A20G U60C, the self-cleavage was found to be 0.34.

In the case of G19A C40U, the self-cleavage came out at 0.21.

Regarding G8A A57G, the self-cleavage is 0.26.

Regarding G36A G42U, the self-cleavage stood at 0.13.

For A13C U48C, the self-cleavage was 0.68.

Turning to U58C U78C, the self-cleavage amounted to 0.47.

Turning to U25C U72A, the self-cleavage turned out to be 0.22.

For the variant U54C A77U, the self-cleavage was 1.07.

Regarding G6A G16A, the self-cleavage turned out to be 0.29.

Consider G24U A75G, for which the self-cleavage was 0.08.

For A28G C62A, the self-cleavage was 0.23.

Take A64G C71U: the self-cleavage was 0.34.

Turning to G9A U74C, the self-cleavage is 0.6.

Consider A5U U41C, for which the self-cleavage stood at 0.98.

Turning to A20G C27U, the self-cleavage worked out at 0.47.

For the variant U69C U74C, the self-cleavage is 0.74.

Regarding U48C G55A, the self-cleavage was 0.32.

Consider C38U A56G, for which the self-cleavage was 0.43.

Regarding C11G U60C, the self-cleavage came out at 0.29.

Consider A13G U58C, for which the self-cleavage was 0.46.

Turning to A15G U26A, the self-cleavage is 0.71.

For the variant A15C A56U, the self-cleavage came out at 0.3.

G7U A20G: the self-cleavage worked out at 0.27.

Regarding U25C U74A, the self-cleavage came to 0.42.

For G73U C79U, the self-cleavage amounted to 1.32.
